As a reminder, the IC50 is the point on the concentration scale where inhibition reaches its midpoint.

Where a SMILES comes first, the peptide text is derived from it. The star is where a group is joined. HYNIC = NNc1ccc(C(=O)*)cn1

Series [1] in a line: in vivo. The settings on record: male, BALB/c-nude, mouse, iv, 11.1 MBq, total radioactivity.
Method: (§1) Five-week-old male BALB/c-nude mice were used for preparation of the xenograft tumor models. An A549 lung carcinoma-bearing model was established by subcutaneous injection of A549 cells at a concentration of 5 × 10^6 cells/mouse into the right front flank of the mice.
(§2) SPECT planar imaging was performed when the tumor volume was approximately 1 cm^3. The mice were anesthetized and placed in a supine position. Planar imaging was performed using a low-energy collimator at an energy peak of 140 keV at the indicated time after ^99mTc-labeled peptide (11.1 MBq, 150 μL) injection. The main imaging acquisition parameters were as follows: 128 × 128 matrix, window-width 20%, zoom 2.0, acquisition time 10 min. […] Then, 100,000 counts were acquired per image at each time indicated after the injection. For the blocking study, an excessive amount of HYNIC-peptide or EC-peptide (500 μg/mouse) was injected 30 min prior to radiolabeled peptide injection.
Series [2] has as its target VEGFR-1 (Homo sapiens, UniProt P17948). Nature of the series: Co-immunoprecipitation of GST-peptide and VEGFR-1. It counts as binding. The conditions noted are these: A549 cells, GST-peptide 80 or 185 nmol/L, 12 h, anti-GST or anti-VEGFR-1 antibody, Western blot. Here is the method:
GST-peptide was prepared and purified as previously described. Briefly, pGEX4T-1-peptide plasmid was obtained by peptide gene insertion into pGEX4T-1. Then, the plasmids were transfected into E. coli BL21 (DE3)-competent cells. Subsequently, GST-peptide fusion proteins were collected and purified by Glutathione Sepharose 4B. The obtained proteins were identified by protein electrophoresis.
A549 cells were seeded in 75 cm^2 bottles (1 × 10^4 counts/mL). After 24 h, GST-QKRKRKKSRKKH (80 nmol/L) or GST–RKRKRKKSRYIVLS (185 nmol/L) protein was added, respectively. After 12 h, the culture medium was removed and the cells were washed by PBS and then spalled with IP lysis buffer containing protease inhibitor (4 °C, 30 min). The protein concentration was determined with BCA methods. Protein (600 μg) from supernatant was used for immunoprecipitation (IP) assays with 1 μg anti-GST antibody or 1 μg anti-VEGFR-1 antibody in a reversed Co-IP experiment, while IgG served as the negative group. After washing 3× by TBST, IgG-HRP was added, shaking 2 h at RT, and last for enhanced chemiluminescence imaging.
On the technique in general: Immunoblotting shows a protein as a band on a membrane.

For series [3], the system named is A549 tumor-bearing nude mice. Put plainly: SPECT planar imaging. The settings on record: intravenous administration, 2 hour.
Method: as §1, §2
Series [4] deals with A549 xenograft tumors. Nature of the series: Therapeutic evaluation of ^188Re-peptides on A549 tumors. The format is in vivo, mice. The settings on record: 18.5 MBq i.v. at the first and seventh day. The method, then: Sixty mice were randomly separated into 6 groups once the tumor volumes reached approximately 0.1 cm^3: saline group, ^188ReO4 ^− group (18.5 MBq), non-labeled peptide group (4 μg per mouse) and ^188Re-labeled peptide group (18.5 MBq, 4 μg peptide per mouse) (n = 10). All drugs were administered i.v at the first and seventh day. Tumor size was determined weekly by measuring the length, width, and depth of the tumor using a caliper. Tumor volume was calculated as follows: tumor volume = (length × width × depth) × π/6. The mice were abandoned once dead or body weight loss was more than 20%.
At the end of the therapeutic period, mice were sacrificed, and the tumors were collected and fixed in 4% paraformaldehyde (PFA). Routine hematoxylin and eosin (H&E) staining and TdT-mediated dUTP nick-end labeling (TUNEL) staining were performed for necrosis and apoptosis analysis according to the manufacturer’s instructions.

Series [5] addresses VEGFR (UniProt P17948 27-1338). Nature of the series: radioligand binding; receptor competition binding with 125I-VEGF165, peptide concentration varied; details in ref. 28.

Sequence of VEGFR (P17948 27-1338): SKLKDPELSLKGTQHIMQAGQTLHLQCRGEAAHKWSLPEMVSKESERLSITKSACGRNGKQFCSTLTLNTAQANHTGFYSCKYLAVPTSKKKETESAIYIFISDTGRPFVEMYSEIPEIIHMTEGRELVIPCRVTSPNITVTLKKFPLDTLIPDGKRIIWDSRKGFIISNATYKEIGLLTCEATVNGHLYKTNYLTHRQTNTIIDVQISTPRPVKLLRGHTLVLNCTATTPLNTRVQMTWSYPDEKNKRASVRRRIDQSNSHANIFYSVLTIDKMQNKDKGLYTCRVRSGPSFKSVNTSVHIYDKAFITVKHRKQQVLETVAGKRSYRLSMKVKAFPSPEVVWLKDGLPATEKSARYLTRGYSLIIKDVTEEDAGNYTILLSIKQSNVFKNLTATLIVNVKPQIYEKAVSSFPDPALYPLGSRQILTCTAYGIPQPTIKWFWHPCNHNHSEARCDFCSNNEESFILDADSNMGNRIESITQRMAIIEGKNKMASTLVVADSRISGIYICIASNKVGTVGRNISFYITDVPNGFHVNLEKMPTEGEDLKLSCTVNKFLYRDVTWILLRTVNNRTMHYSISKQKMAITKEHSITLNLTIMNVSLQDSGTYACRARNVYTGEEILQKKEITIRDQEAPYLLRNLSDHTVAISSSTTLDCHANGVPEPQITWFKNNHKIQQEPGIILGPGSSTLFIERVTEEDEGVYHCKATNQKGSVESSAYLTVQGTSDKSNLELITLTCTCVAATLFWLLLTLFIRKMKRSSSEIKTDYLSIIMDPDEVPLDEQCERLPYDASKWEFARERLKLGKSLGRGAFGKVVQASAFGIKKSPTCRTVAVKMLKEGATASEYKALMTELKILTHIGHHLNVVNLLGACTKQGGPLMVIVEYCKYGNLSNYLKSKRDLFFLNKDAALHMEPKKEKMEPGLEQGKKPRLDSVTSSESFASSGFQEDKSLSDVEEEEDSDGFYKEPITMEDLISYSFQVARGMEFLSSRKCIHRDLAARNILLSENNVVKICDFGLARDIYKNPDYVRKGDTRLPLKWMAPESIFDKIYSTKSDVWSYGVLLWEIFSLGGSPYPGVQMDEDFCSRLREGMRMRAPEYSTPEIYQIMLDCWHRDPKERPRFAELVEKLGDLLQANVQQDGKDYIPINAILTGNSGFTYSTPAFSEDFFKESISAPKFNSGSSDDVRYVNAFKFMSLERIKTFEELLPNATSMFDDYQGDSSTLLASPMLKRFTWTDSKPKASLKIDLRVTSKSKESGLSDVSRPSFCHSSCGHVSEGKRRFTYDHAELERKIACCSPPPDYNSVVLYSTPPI
Sequence of VEGFR-1 (P17948 27-656 limits assumed): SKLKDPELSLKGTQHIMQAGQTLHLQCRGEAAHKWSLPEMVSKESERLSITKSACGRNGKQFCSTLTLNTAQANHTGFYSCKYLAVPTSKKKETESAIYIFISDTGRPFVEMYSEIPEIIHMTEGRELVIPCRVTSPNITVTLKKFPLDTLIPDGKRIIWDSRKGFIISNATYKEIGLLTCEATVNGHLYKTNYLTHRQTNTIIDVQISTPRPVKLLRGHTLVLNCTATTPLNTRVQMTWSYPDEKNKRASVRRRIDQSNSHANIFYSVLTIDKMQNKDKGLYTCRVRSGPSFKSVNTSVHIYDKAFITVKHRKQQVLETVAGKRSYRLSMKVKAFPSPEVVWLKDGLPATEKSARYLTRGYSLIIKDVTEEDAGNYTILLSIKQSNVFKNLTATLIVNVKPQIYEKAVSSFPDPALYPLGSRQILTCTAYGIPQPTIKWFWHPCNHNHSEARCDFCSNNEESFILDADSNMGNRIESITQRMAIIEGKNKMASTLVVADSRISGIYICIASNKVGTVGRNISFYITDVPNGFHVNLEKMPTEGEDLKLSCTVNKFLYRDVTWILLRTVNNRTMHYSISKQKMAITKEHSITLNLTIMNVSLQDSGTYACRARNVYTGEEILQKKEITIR

For the molecule `CC[C@H](C)[C@H](NC(=O)[C@H](Cc1ccc(O)cc1)NC(=O)[C@H](CCCNC(=N)N)NC(=O)[C@H](CO)NC(=O)[C@H](CCCCN)NC(=O)[C@H](CCCCN)NC(=O)[C@H](CCCNC(=N)N)NC(=O)[C@H](CCCCN)NC(=O)[C@H](CCCNC(=N)N)NC(=O)[C@H](CCCCN)NC(=O)[C@H](CCCNC(=N)N)NC(=O)c1ccc(NN)nc1)C(=O)N[C@H](C(=O)N[C@@H](CC(C)C)C(=O)N[C@@H](CO)C(=O)O)C(C)C` (99mTc complex, metal not drawn) [^99mTc-HYNIC-RKRKRKKSRYIVLS] ({HYNIC}-RKRKRKKSRYIVLS-OH), in series [1], the tissue to tissue ratio at 0.5 h was determined as 4.05, the tissue to tissue ratio at 1 h was 4.02, the tissue to tissue ratio at 2 h stood at 3.76 and the tissue to tissue ratio at 4 h turned out to be 2.86.
“GST-RKRKRKKSRYIVLS [GST-peptide fusion protein from E. coli BL21 (DE3)]”: the “binding to VEGFR-1 by Co-IP and reversed Co-IP” value in series [2] is given as “could combined to VEGFR-1”.
Turning to `N=C(N)NCCC[C@H](NC(=O)[C@H](CCCCN)NC(=O)[C@H](CCC(N)=O)NC(=O)c1ccc(NN)nc1)C(=O)N[C@@H](CCCCN)C(=O)N[C@@H](CCCNC(=N)N)C(=O)N[C@@H](CCCCN)C(=O)N[C@@H](CCCCN)C(=O)N[C@@H](CO)C(=O)N[C@@H](CCCNC(=N)N)C(=O)N[C@@H](CCCCN)C(=O)N[C@@H](CCCCN)C(=O)N[C@@H](Cc1c[nH]cn1)C(=O)O` (99mTc complex, metal not drawn) [^99mTc-HYNIC-QKRKRKKSRKKH] ({HYNIC}-QKRKRKKSRKKH-OH), in series [1], the tissue to tissue ratio at 0.5 h amounted to 1.53, the tissue to tissue ratio at 1 h worked out at 3.42, the tissue to tissue ratio at 2 h amounted to 4.31 and the tissue to tissue ratio at 4 h is 2.62.
With “GST-QKRKRKKSRKKH [GST-peptide fusion protein from E. coli BL21 (DE3)]”, the “binding to VEGFR-1 by Co-IP and reversed Co-IP” value in series [2] is “could bind to VEGFR-1”.
On to `[Na+].[O]=[188Re](=[O])(=[O])[O-]` [Na^188ReO4], for which, in series [3], the “distribution of radioactivity on SPECT planar imaging” value is “Large amount of radioactivity was observed in thyroids and stomach”. Moreover, in series [4] (compared with the saline group, n = 10), the “A549 tumor volume growth” value is given as “inhibited the tumor volume growth”. In series [4] (end of the therapeutic period), the “apoptosis in non-necrotic tumor areas (TUNEL staining)” value is recorded as “no significant difference in necrosis or apoptosis” and the “necrotic regions in tumor tissue (HE staining)” value is given as “no significant difference in necrosis or apoptosis”. Further, the “survival of A549 tumor-bearing nude mice” value in series [4] (n = 10) is given as “did not improve the survival duration”.

B1: QKRKRKKSRKKH (peptide)
peptide: QKRKRKKSRKKH
notes: core motif RKRKKSR kept; also called non-labeled peptide; source: synthetic peptide (ChinaPeptides Co., Ltd., SPPS, HPLC purified)
In turn, B1 yielded an IC50 in series [5] of 79.8 nM.

B2: VEGF_(125-136) (peptide)
peptide: QKRKRKKSRYKS
notes: source: synthetic peptide (ChinaPeptides Co., Ltd., SPPS, HPLC purified)
The molecule B2 returned an IC50 in series [5] of 464 nM.

B3: RKRKRKKSRYIVLS (peptide)
peptide: RKRKRKKSRYIVLS
notes: as for B1
Regarding B3, the IC50 in series [5] amounted to 185 nM. Compared with the last molecule, the IC50 is about 2.5-fold lower.

Source of the values: publication PMC5487319 (Scientific Reports, 2017).
